Assay: soluble on expression in E. coli; label from the status in PepcDB or PDB records

Sequence	soluble on expression in E. coli
SLVELQEIFDVSYGSKLDLNKMSSFNPTINFVGRSGKNNGVTASVDLLKNTKPYPAGLLTVALGGSVLSTFLQNKPFYTAQNVAVLNPKTEMTEQQKLFYCAAIFANAYRFSACGREANRTLRQLFVPSLDEIPSWVESVNLNPSAGVTEPKLKESLDLPVVRQSKRLDEIFTIQNGIAATKLKEFEQRQKDTVVYIRPASTQARTLRSYIARDSVDEKHIFPCHTLFTSTNGEGSHTYSYVSTCEFVANSDVAVLTPIQSDMPIEVKLYYAKCITANRYLFSYGRKPKGEKLKSIMLPYFDQQEDFDYICRFIHTLLFSNNL	not soluble
MALMTNKTRALLIGGHGKVALLATPMLIDASVQVTSMYRNPDHRSEIEALGATTLERDVTTLSVEDWADLLKDFDVVVWSAGNGGKNGADATYAIDRDAAIASIDGAASLGEKAPRYIMVSYIGSSTHTIDPSASFYPYAESKKAADEHLSSTNLDYLILAPAALTLDEVNGVEVIADTNEAAAGRTTSRVLVAEVITEFVVRDFPQTRVLPFVDGESPLEHHHHHH	soluble
MGSDKIHHHHHHMYKEYSPCSVLAPFIYHFWEYKGETRNGLKFNIPPHGRSDFVFIVGNAADCIRNSLIMKPYHSYFFGPMNTFTELVAHTNFIYIIGVRFRPCGLFRFIDIPLNELTNQGIDSHEFPVLFSQSFIYQLCESNQNPIDAIEHELVRQVYKNNTDTEKQISYAVSLISRQKGIVSIKELATEACLGLRQFERKFKFYTGYSPKEYSRIVKFWNAIHLLKSNTSFDNFLSVAIQAGYYDTPHLYREVKRLSGNTPNAFLSLSTNEKVEVLHIEL	not soluble
MAHHHHHHMSSPQVVCEAKKAFEANKRVYESVLLTFKGVDGYDVYNCSVPFSYKGKTHIYGRVEKRDIWAASHVRLFEETGKDEFTAVPDGMTWLLEDPFVSSVKGEALFGGTRIRKVSNRLLSYYCDFFRGGIEQGLYFTTGPDNMKDIRCVELANGSIGVFSRPKTDVYTCIGFTIIDDLSELTQKVINEAEPLNVLHPGAWGGVNQAYLLTSGKVGCIAHYSYNSKDDKDCPTSVYLNYSFVLDPETKQAEMERIIGTRSCYPDYPVKAERLIDCAFSSGIVMREDGKCDLYSGLGDTCEGRIAIDYPFEGYGAVVDQLSF	soluble
SVKETENLLQTGISEVRGTLKISAPRDIGKQIISPMVSAFSEQYPDVTPYLYLNDNLSNLAESGLDLVIRYGELADSNLISRRLASSQRVLCASPDYLSKQGVPNCPQDLAAHRCLAMVRSNEELKTWHFKDEESHQSITVTPKRFSDDGEVIRQWALDGAGIALKSILDIQQDLKQQRLVTVLDGYMKNFSAFSQGAEADLHVIYQSRQYQPKRVRLFLDFLVEQFSALSDTSNQI	not soluble
MGSDKIHHHHHHMTITTQSLPVVRRHTIHFLEKAKNSQAVYLSTDIDASRIQEVKRRYEQASIKISYISFLLFAISRAIEVFPEVNSSVQGRWHLKRWQFSTIDAKVTLDKLAGQERMVVSSVIPETNKKSLLAIQDEINELKIASFETSDRFQSIRKLQRLPLWIGRIIYRKILQNPITWQQTQGSFTITSLGHVPIQSFFPITTNTVCFGVGSIRECAVVREGQVVVRPMLPLSMTFDHRAIDGALASEFLYRIKQNVEEWEVEAWEDDQKNQAMM	not soluble
MTAKPLPIFLLPISAIRKAMEQMSFAELLIISILSKNAKDFVTLLTKPLKNMIISVDCWLSLKLVTASSELYLLYFKRKQRVRIEKSPYDKRYKKLYLPGFTEKQWIGHIVRVFSHNNGIVLSLKPLFSFRRGKIKETVELFKGLNVRKLVNHDSRIENRQLLKLFPTPNYLRLSNDYICESILVQNFETLELLEKKLSLNDILTTNCTNLEIHYQSLSDRNLNLFMKHWIRGSNPNLQSICVNFSREMRSFGAEVFKGIDHRKTIPQENFYWGKH	not soluble
AEKTNYAVTYKSDSVPSISMAVNTEQSSHYISQFIAVQGLEDHSAKSIFIQDMLQRIVSKRLMHYVREELSLDYAPYALMVNADSEFKPHWVMGAQVDPKNAELIESAIDKVIKDLLRGVTENEVNAAAKQLVVDLEPLKNNSTQQAWLLNRYTIHNYGIEALFGISETANSVNAEDINRLIKYSFGKNSHQFKYLSTPI	not soluble
MHHHHHHSSGVDLGTENLYFQSMEEHDSPTEASQPIVEEEETKTFKDLGVTDVLCEACDQLGWTKPTKIQIEAIPLALQGRDIIGLAETGSGKTGAFALPILNALLETPQRLFALVLTPTRELAFQISEQFEALGSSIGVQSAVIVGGIDSMSQSLALAKKPHIIIATPGRLIDHLENTKGFNLRALKYLVMDEADRILNMDFETEVDKILKVIPRDRKTFLFSATMTKKVQKLQRAALKNPVKCAVSS	soluble
MGSMAHSDGIFKKEQAMCLEKIQRANELMGFNDSSPGCPGMWDNITCWKPAHVGEMVLVSCPELFRIFNPDQDMGVVSRNCTEDGWSEPFPHYFDACGFDEYESET	soluble
MIKEAIKQLAQDIGISKIGFTTADDFDYLEKSLRASVEEGRSSGFEHKNIEERIKPRLSLASAKTIISIAIAYPHKLPVKPPKTQYKRGKITPNSWGLDYHYVLEEKLQRLAQGIESLCQDFPLEHKIMVDTGALVDTAVAQRSGIGFIGKNGLVISKEFGSYMYLGELITNLEIEPDSPVDYDCGDCHRCLDACPTSCLLGDGSMNAKRCLSFQTQDKGMMDLEFRKKIKTVIYGCDICQICCPYNKGIHNPLASEIDPELAEPELLPFLELSNSQFKKKFGMIAGSWRGKNTLQRNAIIALANGHDKSALVKLMEIIDKNNNPIHTATAIWALGEIVKKPTQELYDFILSIHSDNDAIIKERTALLNRWQF	not soluble
MGSDKIHHHHHHMKMTDPLYGTFEIEPVLAELIQSPLVSRLAHVHQGGSSYLVNPLWDLSRLDHSIGVMLFIRKFGGSLEEQIAGLLHDVSHTAFSHVVDYALDFEEEDYHEQIFEDFVKTSTIPAILEKYGYSFEGIFDDISKWKILEQEAPELCADRIDYTLQDLYRHRKISLAEVEEFLQALVMVDGRLYLANIALAEWFVAQYYSEVIDYFYDPLNVYSYEILAEAMRIAFQQETITTADLRLTDTELLAKLNANSDAREKIQLLASAHLEENEADFTYHHKKKMRLINPSILVDGRLIPADELSEKVRKMNDWASERSKHGIYIKATKKSKQ	not soluble
GAMGSMATRIAILGAGPSGMAQLRAFQSAQEKGAEIPELVCFEKQADWGGQWNYTWRTGLDENGEPVHSSMYRYLWSNGPKECLEFADYTFDEHFGKPIASYPPREVLWDYIKGRVEKAGVRKYIRFNTAVRHVEFNEDSQTFTVTVQDHTTDTIYSAAFDYVVCCTGHFSTPYVPEFEGFEKFGGRILHAHDFRDALEFKDKTVLLVGSSYSAEDIGSQCYKYGAKKLISCYRTAPMGYKWPENWDERPNLVRVDTENAYFADGSSEKVDAIILCTGYIHHFPFLNDDLRLVTNNRLWPLNLYKGVVWEDNPKFFYIGMQDQWYSFNMFDAQAWYARDVIMGRLPLPSKEEMKADSMAWREKELTLVTAEEMYTYQGDYIQNLIDMTDYPSFDIPATNKTFLEWKHHKKENIMTFRDHSYRSLMTGTMAPKHHTPWIDALDDSLEAYLSDKSEIPVAKEA	soluble
MGSDKIHHHHHHMNLVMEKTFEQYEKLFSMEEQKREDVFRYTMMRPFEKMWTAIQVPLKAKEPNGYDVIMAAKMLGYLDVRDAESGQKALQILKESHVSETAESALRQCIFFAEREQLRVNAKEIKFGLYIADPNKLQLQKGYCGFGGIPGFIHVWINPNSYNLPRIPSIIAHEFHHNVRFSYIDFHHGSVSVGDYLVIEGLAESFARELFGTERLGPWVTRFDHEDLQYSIDVINEVLDVKGFSEVSRYMFGDPIANDQGFKPAGLSAFAGYAVGYHAVQSFMNQHHITISEATRLDAKTIISQCGLFLHEKSVTYSGAF	not soluble
DIQMTQSPSSLSASVGDRVTITCRASGNIHNYLAWYQQKPGKAPKLLIYYTTTLADGVPSRFSGSGSGTDYTFTISSLQPEDIATYYCQHFWSTPRTFGQGTKVEIKR	soluble
MGVLDHVSEYFDCSHGSSKRHKSLQTVDVRVLIDCEGCERKVRRALEGMRGIRDVTIEPNAQKVTVVGYVEPNKVVARIIHRTGKRAELYPFVPYDVVAHPYASGVYDNRAPTGYVRNTEYDPHVSRLARASSTEVRYTTAFSDENASACVVM	soluble
MSAASTTSTPAAAAVAPQQPESLYRVVQTLGEGAFGEVLLIVNTKNPEVAAAMKKINIANKSKDFIDNIRKEYLLQKRVSAVGHDNVIRMIGMRNDPQFYYLFLEYADGGELFDKIEPDCGMSPVFAQFYFKQLICGLKFIHDNDVVHRDIKPENLLLTGTHVLKISDFGMATLYRNKGEERLLDLSCGTIPYAAPELCAGKKYRGPPVDVWSSGIVLIAMLTGELPWDRASDASQSYMGWISNTSLDERPWKKIDVRALCMLRKIVTDKTDKRATIEQIQADPWYQHNFGQVETPNGRPLKRARNNDENITCTQQAECSAKRRHLETPNEKSTLAERQNASFSQPTKTEDLLLTQHIDMSQTNSVRKKPSEIGGFLAKISNFSVNLLQRMVCRMTRFCVVTDIRSTYQKVARASEHAGFGVRETDDYRLLVTWREVSMMVSLYTMGDIPDKPRVMVDFRRSRGDGIQFKKMFMDVRNRMHEWICTDGNNWLANLGYVPRNPQIVNGGGVNVEHSASSINVDV	not soluble
MPETELHVIFDQPNEVFFPGQPISGRVVLSTTEEKYKARAVNIKILGLAHTSWTDYDSVRRVDNDGNVRYDSESVHYSSNVHYLDQALLLWACKDGSNELSAGDYVWPFSYTLPLNVPPSFEGKYGYLRYSVTAEVDRPWRLDKAKRRCITVSPLIDLNAIPLALTPIDDEESENLGCCFFRKGYLELRVNIPKTGFVPGETVPMNIHILNHSSVPVTEVKAKIIQQCKFIAYRNGTIFRFDGGSDTLMSGSSQQTKYDTKPVITQTQPMTVTPGNEHKFVLEFRLPSVTPTICRFSPVITVEYVVQVRVETTSTCGSAAKCEMPILIGTVPIRNYLPPPIPNNYPIGLPPPYANLTDVNVPCPSGGSGTAVIPSAPPPSYQESMYGVGGTELRAEENEKPFAPKYPVFNNLPIYNPTAPPSE	not soluble
NTAPSLTVPECAICLQTCVHPVSLPCKHVFCYLCVKGASWLGKRCALCRQEIPEDFLD	soluble
MGSDKIHHHHHHMTLLDEAVVLNDGSLMPKVGVVVGNKPADDAIKAGYRLIDCSLDQKTKLKAENPQLYVEVQVPEDVITRDDFKKIRQDIIDHHADLCLLKLSDNKEKNGQIWQELEQLKIQGWIKNIGVINISVDALNELLNHTQVRPCVAQISYEDQGLINLARENRIQVEIPVHGDINALAEIASHYGTSSVELVMRYFSQKGIVPLFEIEDVVENPRINFTINAEDLATIGQLFAQK	not soluble
MDTMGRHVISELWGCDFDKLNDIDFIEKTFVDAALKSGAEIREVAFHKFAPQGVSGVVIISESHLTIHTFPEHGYASIDVYTCGHLDPTIAADYIAEMLGAQTRETIELPRGMRPIEVKKAQAL	soluble
MKIAIVGSGNGAVTAAVDMVSKGHDVKLYCRNQSISKFQNAIEKGGFDFNNEGDERFVKFTDISDDMEYVLKDAEIVQVIIPSSYIEYYADVMAEHVTDNQLIFFNMAAAMGSIRFMNVLEDRHIETKPQLAEANTLTYGTRVDFENAAVDLSLNVRRIFFSTYDRSCLNDCYDKVSSIYDHLVKEESLIKTNLENGNPEVHPGPTLLNVGRIDYAGEFALYKEGITKHTVRLLHAIELERLNLGRRLGFELSTAKESRIERGYLERDKEDEPLNRLFNTSPVFSQIPGPNHVESRYLTEDIAYGLVLWSSLGRVIDVPTPNIDAVIVIASTILERDFFEEGLTVEEIGLDKLDLEKYLK	not soluble

— the DeepSol protein solubility set
